Blank lines part the entries; values can stand above or below the substance they belong to.
Assays:
[1] = system: aCBF5; experiment: EMSA; conditions: EMSA: 150 mM KCl, 1.5 mM MgCl2, 0.2 mM EDTA, 20 mM HEPES pH 7.9, 65 C 10 min, 50 fmol sRNA, 200 nM proteins (Kd: 50-400 nM aCBF5); fluorescence: 300 mM NaCl …
[2] = molecular target: aNOP10 (P. abyssi) (UniProt Q9V0E3)
[3] = molecular target: aCBF5;aNOP10 Y41A/Y44A (Y);L7Ae (Pyrococcus abyssi;Pyrococcus abyssi) (UniProt P62008); experiment: EMSA; conditions: radiolabeled substrate, excess unlabeled sRNP; EMSA: 150 mM KCl, 1.5 mM MgCl2, 0.2 mM EDTA, 20 mM HEPES pH 7.9, 65 C 10 min, 50 fmol sRNA, 200 nM proteins (Kd: 50-400 nM aCBF5); fluorescence: 300 mM NaCl …
[4] = molecular target: aCBF5;aNOP10;L7Ae H70A/L74A/E77A (HLE) H65A;L69A;E72A (Pyrococcus abyssi;Pyrococcus abyssi) (UniProt P62008); experiment: EMSA; conditions: radiolabeled substrate, excess unlabeled sRNP; EMSA: 150 mM KCl, 1.5 mM MgCl2, 0.2 mM EDTA, 20 mM HEPES pH 7.9, 65 C 10 min, 50 fmol sRNA, 200 nM proteins (Kd: 50-400 nM aCBF5); fluorescence: 300 mM NaCl …
[5] = molecular target: aNOP10 Y41A/Y44A (P. abyssi) (UniProt Q9V0E3)
aNOP10 Y41A/Y44A (P. abyssi), sequence (Q9V0E3 whole entry Y41A/Y44A): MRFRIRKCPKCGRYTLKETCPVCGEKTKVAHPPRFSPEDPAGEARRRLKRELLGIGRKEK

aNOP10 (P. abyssi), sequence (Q9V0E3 whole entry): as the sequence (Q9V0E3 whole entry Y41A/Y44A) above, with A41Y, A44Y counted along it

Substance: GGGGAUGGGCCCGGCUCCCGCCCUCUCCGGGGAAUCGUGAACCGGGGGUUCCGGCCGGGCCUACAGU [Pab21 H/ACA sRNA]
Kd [1]: 125 nM

δ(Δε): decrease of the RNA CD signal at λmax on addition of L7Ae H70A/L74A/E77A to the wild-type aCBF5-aNOP10-Pab21 complex (M^−1.cm^−1 per nt) [2]: -0.825
Substance: L7Ae triple mutant H70A/L74A/E77A (from UniProt P62008 1-123) (natural protein)

Substance: GGGGAUCCCCUCCCCUCCCGCCCUCUCCGGGGAAUCGUGAACCGGGGGUUCCGGGGGAGGGGACAGU [Pab21P191 chimera]
Kd [1]: 200 nM

Substance: Pab21 guide + substrate RNA
binding signal (fold decrease of CII') [3]: 2 | binding signal (fold decrease of CII') [4]: 2

Substance: GGGUAAUGGGGCCCGGCUCUCACACCUCCGGGAUCAGUGACCGGAGGGCGGUCGCCGGGCCUACACCU [Pab91P121 chimera]
Kd [1]: 200 nM

δ(Δε): decrease of the RNA CD signal at λmax on addition of L7Ae to the aCBF5-aNOP10-Pab21 complex (M^−1.cm^−1 per nt) [2]: -1.21 | δ(Δε): decrease of the RNA CD signal at λmax on addition of wild-type L7Ae to the aCBF5-aNOP10(Y41A/Y44A)-Pab21 complex (M^−1.cm^−1 per nt) [5]: -0.82
Substance: L7Ae (from UniProt P62008 1-123) (natural protein)
